Assay results from patent publication US20260116966A1 (KEYMED BIOSCIENCES CHENGDU, published 2026).
Positions count from the first letter of the chain named. Blank lines part the entries; values can stand above or below the binder they belong to.

Experiments:
human GPRC5D [1] = target: T1, human GPRC5D (human, UniProt Q9NZD1 1-345); assay: flow cytometry on CHO-hGPRC5D cells
T1 construct: Full length, on stably transfected cells (HEK293-hGPRC5D, CHO-hGPRC5D); Also used here for the endogenous GPRC5D of the GPRC5D+ myeloma lines MM.1R, MM.1S and NCI-H929; also called hGPRC5D; G-protein-coupled receptor family C group 5 member D
Experimental: (§1) The binding of the antibodies to human and Cynomolgus GPRC5D stably transfected cells was detected by flow cytometry. […] Then, 100 μl/well of the cell suspension was added to a 96-well U-shaped plate, and centrifuged at 300 g for 5 min. The supernatant was discarded. 100 μL per well of serially diluted antibody was added (initial concentration: 200 nM, 3-fold dilution, 12 gradients), and incubated at 4° C. for 45 min. The secondary antibody 50 μL/well of Alexa Fluro647 labeled goat anti-human IgG Fc (1:300 dilution) was added, incubated on ice for 45 min, and detected by flow cytometry.

Cynomolgus GPRC5D = target: T2, Cynomolgus GPRC5D (Cynomolgus, UniProt Q9NZD1 1-343 (human entry)); assay: flow cytometry, CHO-cyGPRC5D cells
T2 construct: Full length, on stably transfected cells (HEK293-cyGPRC5D, CHO-cyGPRC5D); also called cyGPRC5D
T2 chain: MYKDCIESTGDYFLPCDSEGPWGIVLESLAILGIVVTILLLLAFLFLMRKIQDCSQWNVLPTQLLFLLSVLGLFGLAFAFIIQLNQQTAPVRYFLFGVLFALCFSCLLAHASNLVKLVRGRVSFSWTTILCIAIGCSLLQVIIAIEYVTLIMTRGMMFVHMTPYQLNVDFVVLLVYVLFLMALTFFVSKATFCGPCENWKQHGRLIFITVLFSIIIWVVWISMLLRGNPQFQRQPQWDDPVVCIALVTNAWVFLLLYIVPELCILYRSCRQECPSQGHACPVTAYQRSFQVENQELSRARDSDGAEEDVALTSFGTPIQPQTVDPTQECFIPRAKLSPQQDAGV
Experimental: as §1

human GPRC5D [2] = target: T1, human GPRC5D; assay: cell-based or functional assay
human GPRC5D [3] = target: T1, human GPRC5D; assay: flow cytometry, MM.1R cells
Experimental: The cell suspension was adjusted to a concentration of 5×10⁵ cells/mL, and 100 μL per well was added to a 96-well U-shaped plate, centrifuged at 300 g for 5 min. The supernatant was discarded. 100 μL per well of serially diluted antibody was added (initial concentration: 200 nM, 3-fold dilution, 10 gradients), and incubated at 4° C. for 60 min. The primary antibody was washed away, and 50 μL/well Alexa Fluro647 labeled goat anti-human IgG FC (1:300 dilution) was added, and incubated for 20 min. After washing once, 50 μL/well of PI was added, incubated for 5 min, and detected by flow cytometry.

T1 sequence (Q9NZD1 whole entry): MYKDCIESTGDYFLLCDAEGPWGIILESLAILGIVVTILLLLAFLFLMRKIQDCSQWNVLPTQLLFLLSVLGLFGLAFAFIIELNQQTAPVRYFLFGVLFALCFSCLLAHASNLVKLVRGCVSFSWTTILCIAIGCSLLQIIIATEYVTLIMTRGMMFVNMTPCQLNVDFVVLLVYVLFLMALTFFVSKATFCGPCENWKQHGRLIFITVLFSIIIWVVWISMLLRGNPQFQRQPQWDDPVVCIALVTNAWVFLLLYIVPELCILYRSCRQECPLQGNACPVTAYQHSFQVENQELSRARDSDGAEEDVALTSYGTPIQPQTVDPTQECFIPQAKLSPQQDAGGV

- binding result (human GPRC5D [1]): binds
- binding result (Cynomolgus GPRC5D): binds
B1: anti-GPRC5D chimeric antibody 10B1 (antibody, V domains shown)
VH: QVQLQQSGAELARPGASVKMSCKASGYIFTSYTMYWVKQRPGQGLEWIGYINPSSGYTNYNQKFKDKATLTADKSSSTAYMQLSSLTSEDSAVYYCARWGGNERLYYYAMDYWGQGTSVTVSS
VL: QIVLTQSPAIMSASPGEKVTITCSASSSVSYMYWFQQKPGTSPKLWIYGTSNLASGVPARFSGSGSGTSYSLTISRMEAEDAATYYCQQRSSYPLTFGAGTKLELK

- binding result (human GPRC5D [1]): binds
- binding result (Cynomolgus GPRC5D): binds
B2: anti-GPRC5D chimeric antibody 18E7 (antibody, V domains shown)
VH: EVQLQQSGPELVKPGASVKMSCKASEYTFTNYVMYWVKQKPGQGLEWIGYINPYNDGTKYNEKFKGKATLTSDKSSSTAYMELSSLTSEDSAVYYCVRGGMLTTRSLFAYWGQGTLVTVSA
VL: DIQMTQSPSSLSASLGERVSLTCRASQRISGYLSWLQQKPDGTIKRLIYAASTLDSGVPKRFSGSRSGSDYSLTISSLESEDFADYYCLQYASYPPTFGGGTKLEIK

- binding result (human GPRC5D [1]): binds
- binding result (Cynomolgus GPRC5D): binds
B3: anti-GPRC5D chimeric antibody 15H5 (antibody, V domains shown)
VH: B2 VH with K23M, E26G, N31S, V97A, A109V, Q113H
VL: B2 VL with R28E, F98Y

- binding result (human GPRC5D [1]): binds
- binding result (Cynomolgus GPRC5D): binds
B4: anti-GPRC5D chimeric antibody 19E2 (antibody, V domains shown)
VH: B2 VH
VL: B2 VL with S93N

- binding result (human GPRC5D [1]): binds
- binding result (Cynomolgus GPRC5D): binds
B5: anti-GPRC5D chimeric antibody 12A4 (antibody, V domains shown)
VH: B2 VH with A109T
VL: B2 VL

- binding result (human GPRC5D [1]): binds
- binding result (Cynomolgus GPRC5D): binds
B6: anti-GPRC5D chimeric antibody 14D1 (antibody, V domains shown)
VH: B2 VH with E10D, E26G, T28K, N31S, P41T, L83F
VL: B2 VL with R28E, L33F

- binding result (human GPRC5D [1]): binds
- binding result (Cynomolgus GPRC5D): binds
B7: anti-GPRC5D chimeric antibody 17D12 (antibody, V domains shown)
VH: B2 VH with E26G, N31S, G44V, K63R, K65T, V97A, A109L
VL: B2 VL with Q3V, T5S, R28E, L33F

- binding result (human GPRC5D [1]): binds
- binding result (Cynomolgus GPRC5D): binds
B8: anti-GPRC5D chimeric antibody 15A6 (antibody, V domains shown)
VH: B2 VH with E26G, G44V, K65T, V97A, A109V
VL: B2 VL with R28E, L33F

- binding result (human GPRC5D [1]): binds
- binding result (Cynomolgus GPRC5D): binds
B9: anti-GPRC5D chimeric antibody 18C3 (antibody, V domains shown)
VH: EVQLVESGGDLVKPGGSLKLSCAASGFTFSSYGMSWVRQTPDKRLEWVATISSGGSYTYYPDSVKGRFTISRDNAKNTLYLQMSSLKSEDTAMYYCARHEARATFDYWGQGTTLTVSS
VL: DIVMTQAAPSVPVTPGESVSISCRSSKSLLHSNGNTYLYWFLQRPGQSPQLLIYRMSNLASGVPDRFSGSGSGTAFTLRISRVEAEDVGVYYCMQHLEYPFTFGSGTKLEIK

- binding result (human GPRC5D [1]): binds
- binding result (Cynomolgus GPRC5D): binds
B10: anti-GPRC5D chimeric antibody 8C2 (antibody, V domains shown)
VH: EVQLVESGGDLVKPGGSLKLSCAASGFTFSSYGMSWVRQTPDKRLEWVATISSGGSYTYYPDSVKGRFTISRDNAKNTLYLQMSSLKSEDTAMYYCARHGGSSSYVMDYWGQGTSVTVSS
VL: B9 VL

- TDCC EC50 (pM), MM.1R (human GPRC5D [2]): 161 pM
- EC50 (human GPRC5D [3]): 6.88 nM
- Maximum fluorescence intensity (MFI, 200 nM) (human GPRC5D [3]): 65700 MFI
B11: 2E1 × CD3 GPRC5D×CD3 κλ bispecific antibody (bispecific antibody, human IgG4, V domains shown)
VH 1: QVQLVQSGAEVKKPGSSVKVSCKASGYTFTRYWMHWVREAPGQGLEWMGEFNPSNGRINYNEKFQGRVTLTIDKSSSTAYMELSSLRSEDTAVYYCTRGFAYWGQGTLVTVSS
VL 1: EIVLTQSPATLSLSPGERATLSCRASSTVSYIHWYQKKPGQAPRRLIYDTSKLASGIPARFSGSGSGTDYTLTISSLEPEDFAVYYCQQWTTNPWTFGGGTKVEIK
VH 2: EVQLVESGGGLVQPGGSLRLSCAASGFTFNTYAMNWVRKAPGKGLEWVGRIRSKYNNYATYYADSVKDRFTISRDDSKNSLYLQMNSLKTEDTAVYYCVRHGNFGNSYVSWFAYWGQGTLVTVSS
VL 2: QAVVTQEPSLTVSPGGTVTLTCRSSTGAVTTSNYANWVQEKPGQAPRGLIGGTNKRAPWTPARFSGSLLGGKAALTITGAQAEDEAEYYCVLWYSNLWVFGGGTKLTVL
notes: Human IgG4 knob-into-hole Fc with Ser228Pro, Leu235Glu, Pro329Ala; kappa light chain on the GPRC5D arm, lambda on the CD3 arm

- TDCC EC50 (pM), MM.1R (human GPRC5D [2]): 6.95 pM
- EC50 (human GPRC5D [3]): 3.35 nM
- Maximum fluorescence intensity (MFI, 200 nM) (human GPRC5D [3]): 70900 MFI
B12: 4B1 × CD3 GPRC5D×CD3 κλ bispecific antibody (bispecific antibody, human IgG4, V domains shown)
VH 1: QAQLVQSGAEVKKPGSSVKVSCKASGYTFTSYNMHWVREAPGQGLEWMGYIYPGNGGTNYNQKFQGRVTLTADTSSSTAYMELSSLRSEDTAVYFCARGYGYRYWYFDVWGQGTLVTVSS
VL 1: B11 VL 1 with T28S, I32M, T91S, T92N, N93Y, W95P
VH 2: B11 VH 2
VL 2: B11 VL 2
notes: Human IgG4 knob-into-hole Fc with Ser228Pro, Leu235Glu, Pro329Ala

- TDCC EC50 (pM), MM.1R (human GPRC5D [2]): 0.65 pM
- EC50 (human GPRC5D [3]): 1.51 nM
- Maximum fluorescence intensity (MFI, 200 nM) (human GPRC5D [3]): 94600 MFI
B13: 2F1 × CD3 GPRC5D×CD3 κλ bispecific antibody (bispecific antibody, human IgG4 S228P, kappa, lambda)
heavy 1: QVQLVQSGAEVKKPGSSVKVSCKASGYSFTGYTMNWVREAPGQGLEWMGLINPYNGGTRYNQKFQGRVTLTVDKSSSTAYMELSSLRSEDTAVYYCARWALRYGMDYWGQGTLVTVSSASTKGPSVFPLAPCSRSTSESTAALGCLVKDYFPEPVTVSWNSGALTSGVHTFPAVLQSSGLYSLSSVVTVPSSSLGTKTYTCNVDHKPSNTKVDKRVESKYGPPCPPCPAPEFEGGPSVFLFPPKPKDTLMISRTPEVTCVVVDVSQEDPEVQFNWYVDGVEVHNAKTKPREEQFNSTYRVVSVLTVLHQDWLNGKEYKCKVSNKGLASSIEKTISKAKGQPREPQVCTLPPSQEEMTKNQVSLSCAVKGFYPSDIAVEWESNGQPENNYKTTPPVLDSDGSFFLVSKLTVDKSRWQEGNVFSCSVMHEALHNHYTQKSLSLSLGK
light 1: DIQMTQSPSSLSASVGDRVTITCRASQNVGTNVAWYQKKPGKAPKALIYSASYRNSGVPSRFSGSGSGTDFTLTISSLQPEDFATYFCQQYNSYLLTFGGGTKVEIKRTVAAPSVFIFPPSDEQLKSGTASVVCLLNNFYPREAKVQWKVDNALQSGNSQESVTEQDSKDSTYSLSSTLTLSKADYEKHKVYACEVTHQGLSSPVTKSFNRGEC
heavy 2: EVQLVESGGGLVQPGGSLRLSCAASGFTFNTYAMNWVRKAPGKGLEWVGRIRSKYNNYATYYADSVKDRFTISRDDSKNSLYLQMNSLKTEDTAVYYCVRHGNFGNSYVSWFAYWGQGTLVTVSSASTKGPSVFPLAPCSRSTSESTAALGCLVKDYFPEPVTVSWNSGALTSGVHTFPAVLQSSGLYSLSSVVTVPSSSLGTKTYTCNVDHKPSNTKVDKRVESKYGPPCPPCPAPEFEGGPSVFLFPPKPKDTLMISRTPEVTCVVVDVSQEDPEVQFNWYVDGVEVHNAKTKPREEQFNSTYRVVSVLTVLHQDWLNGKEYKCKVSNKGLASSIEKTISKAKGQPREPQVYTLPPCQEEMTKNQVSLWCLVKGFYPSDIAVEWESNGQPENNYKTTPPVLDSDGSFFLYSKLTVDKSRWQEGNVFSCSVMHEALHNHYTQKSLSLSLGK
light 2: QAVVTQEPSLTVSPGGTVTLTCRSSTGAVTTSNYANWVQEKPGQAPRGLIGGTNKRAPWTPARFSGSLLGGKAALTITGAQAEDEAEYYCVLWYSNLWVFGGGTKLTVLGQPKAAPSVTLFPPSSEELQANKATLVCLISDFYPGAVTVAWKADSSPVKAGVETTTPSKQSNNKYAASSYLSLTPEQWKSHRSYSCQVTHEGSTVEKTVAPTECS
notes: Human IgG4 knob-into-hole, Ser228Pro, Leu235Glu, Pro329Ala; also called parent 2F1×CD3 bispecific antibody

- binding result (human GPRC5D [1]): binds
- binding result (Cynomolgus GPRC5D): binds
B14: anti-GPRC5D chimeric antibody 1C1 (antibody, V domains shown)
VH: QAYLQQSGAELVRSGASVKMSCKASGYTFTSYNMHWVKQTPGQGLEWIGYIYPGNGGTNYNQKFKAKATLTADTSSSTAYMQISSLTSEDSAVYFCARGYGYRYWYFDVWGAGTTVTVSS
VL: NIVLTQSPAIMSASPGEKVTMTCSASSSVRFMHWYQQKSGTSPKRWIYDTSKVASGVPARFSGSGSGTSYSLTIRSMEAEDAATYYCQQWSSNPLTFGAGTKLELK

- binding result (human GPRC5D [1]): binds
- binding result (Cynomolgus GPRC5D): binds
B15: anti-GPRC5D chimeric antibody 10E8 (antibody, V domains shown)
VH: EVQLQQSGPELVKPGASMKISCKASGYSFTGYTMNWVKQRHGKNLEWIGLINPYNGGTSYNQKFKGKATLTVDKSSSTAYMELLSLTSEDSAVYYCARLPIRNGMDYWGQGTSVTVSS
VL: DIVLTQSPATLSVTPGDSVSLSCRASQSISNNLHWYQQKSHESPRLLVKFASLSISGIPSRFSGSGSGTDFTLSINSVETEDFGMYFCQQSNSWPQTFGGGTKLEIK

- binding result (human GPRC5D [1]): binds
- binding result (Cynomolgus GPRC5D): binds
B16: anti-GPRC5D chimeric antibody 22C1 (antibody, V domains shown)
VH: B15 VH with A16T, R40S, T58S, S59N, Q62L, S77N, L99W, P100G, I101L, G104A
VL: B15 VL with L4V, Y36F, V48I, F50Y, L53Q
